According to the supplement of paper PMC10724198:
± gives the standard deviation of the averaged measurements.

Key:
Saccharomyces cerevisiae [1] = assay: protein stability index of tFT-peptide fusion (C-terminal peptide) (PSI (0-1 scale)); higher = more stable (slower turnover)
Procedure: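 MPS profiling in S. cerevisiae of the tFT-X12 degron library: putative degron peptides plus stable controls, 12 aa, fused to the C-terminus of a sfGFP-mCherry timer. Cells are FACS-sorted into 8 mCherry/sfGFP bins and deep-sequenced. PSI runs from 0 (unstable) to 1 (stable). Backgrounds are wild type, das1Δ and doa10Δ at 30 °C, and wild type, das1Δ, cdc34-1 and cdc53-1 at 37 °C; 2-3 technical replicates each.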

Saccharomyces cerevisiae [2] = assay: as above; settings: genetic background: wild type; temperature: 30 C
[3] = genetic background: cdc34-1, temperature: 37 C
[4] = genetic background: cdc53-1, temperature: 37 C
[5] = genetic background: das1 deletion, temperature: 30 C
[6] = genetic background: das1 deletion, temperature: 37 C
[7] = genetic background: doa10 deletion, temperature: 30 C
[8] = genetic background: wild type, temperature: 30 C
[9] = genetic background: wild type, temperature: 37 C
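Further: PSI is a weighted mean of sequencing reads over stability bins, variants kept only with over 10 reads, mCherry proximal and sfGFP distal, peptide attached via GGGS linker.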

Sequence	protein stability index (Saccharomyces cerevisiae [1]; [3])	protein stability index (Saccharomyces cerevisiae [1]; [4])	protein stability index (Saccharomyces cerevisiae [1]; [5])	protein stability index (Saccharomyces cerevisiae [1]; [6])	protein stability index (Saccharomyces cerevisiae [1]; [7])	protein stability index (Saccharomyces cerevisiae [1]; [8])	protein stability index (Saccharomyces cerevisiae [1]; [9])	protein stability index (Saccharomyces cerevisiae [2])
FLPGEAVFVYCR	0.619 ± 0.016	0.616 ± 0.037	0.372 ± 0.026	0.627 ± 0.011	0.365 ± 0.017	0.391 ± 0.028	0.64997 ± 0.00056	0.4334 ± 0.0032
SYWNSSPKCGNW	0.712 ± 0.064	0.76 ± 0.022	0.667 ± 0.021	0.7705 ± 0.0011	0.664 ± 0.039	0.681 ± 0.018	0.746 ± 0.011	0.744 ± 0.0092
RAQQRVKERYIE	0.74 ± 0.046	0.729 ± 0.014	0.669 ± 0.022	0.7311 ± 0.0059	0.517 ± 0.058	0.581 ± 0.067	0.69 ± 0.0077	0.432 ± 0.0045
FYACRLWLVSVR	0.161 ± 0.027	0.196 ± 0.011	0.191 ± 0.023	0.313 ± 0.0039	0.158 ± 0.007	0.184 ± 0.021	0.269 ± 0.0029	0.29 ± 0.0033
SRGGVFYVRIHS	0.647 ± 0.043	0.709 ± 0.014	0.628 ± 0.016	0.697 ± 0.018	0.239 ± 0.0035	0.279 ± 0.029	0.4917 ± 0.0011	0.455 ± 0.051
FFCCFVFVLGFC	0.328 ± 0.011	0.443 ± 0.01	0.312 ± 0.028	0.4401 ± 0.0036	0.283 ± 0.014	0.291 ± 0.019	0.393 ± 0.0054	0.419 ± 0.021
GSLHVISVVGML	0.696 ± 0.012	0.709 ± 0.019	0.592 ± 0.016	0.695 ± 0.018	0.393 ± 0.0045	0.439 ± 0.018	0.595 ± 0.014	0.52 ± 0.034
SPCSNFLECLSF	0.714 ± 0.03	0.7431 ± 0.0018	0.643 ± 0.0079	0.729 ± 0.017	0.626 ± 0.025	0.641 ± 0.017	0.733 ± 0.0071	0.561 ± 0.11
LLPSNFLLLVGV	0.219 ± 0.051	0.204 ± 0.011	0.217 ± 0.03	0.325 ± 0.014	0.208 ± 0.012	0.231 ± 0.023	0.2857 ± 0.0024	0.289 ± 0.032
LSRLWVVGWVVA	0.453 ± 0.019	0.472 ± 0.028	0.345 ± 0.032	0.529 ± 0.0071	0.191 ± 0.0034	0.234 ± 0.025	0.399 ± 0.013	0.295 ± 0.036
FLLELRFTCSYS	0.383 ± 0.026	0.454 ± 0.021	0.407 ± 0.014	0.4415 ± 0.00066	0.403 ± 0.013	0.406 ± 0.023	0.4158 ± 0.0028	0.431 ± 0.013
RLWLPLSLVLWV	0.376 ± 0.05	0.3824 ± 0.0031	0.37 ± 0.072	0.505 ± 0.012	0.414 ± 0.03	0.341 ± 0.05	0.421 ± 0.041	0.427 ± 0.029
NASWAFLCYFCV	0.646 ± 0.03	0.69 ± 0.013	0.538 ± 0.018	0.68493 ± 0.0006	0.347 ± 0.018	0.374 ± 0.022	0.557 ± 0.04	0.481 ± 0.028
VARRRQQWMRGS	0.517 ± 0.066	0.56 ± 0.034	0.5261 ± 0.003	0.54643 ± 0.00042	0.529 ± 0.0063	0.516 ± 0.025	0.5449 ± 0.004	0.517 ± 0.041
APPPVAPAPGSA	0.65 ± 0.026	0.701 ± 0.015	0.653 ± 0.035	0.7043 ± 0.0061	0.647 ± 0.041	0.675 ± 0.053	0.672 ± 0.051	0.709 ± 0.012
LVVFLRFFLRVL	0.105 ± 0.0097	0.106 ± 0.002	0.166 ± 0.028	0.265 ± 0.039	0.175 ± 0.003	0.114 ± 0.033	0.158 ± 0.016	0.199 ± 0.0035
VGYSLFTFLFCA	0.579 ± 0.014	0.6313 ± 0.0052	0.481 ± 0.03	0.6315 ± 0.0016	0.303 ± 0.011	0.335 ± 0.017	0.51 ± 0.027	0.432 ± 0.0057
IPLGLTLVQCLY	0.614 ± 0.03	0.61 ± 0.029	0.491 ± 0.042	0.60744 ± 0.00017	0.4357 ± 0.00058	0.477 ± 0.009	0.576 ± 0.0069	0.53 ± 0.053
RIFRCYSFYVVV	0.496 ± 0.047	0.587 ± 0.029	0.393 ± 0.026	0.568 ± 0.024	0.272 ± 0.029	0.267 ± 0.031	0.4233 ± 0.0012	0.336 ± 0.021
PALYLSLWFLFP	0.534 ± 0.056	0.606 ± 0.023	0.445 ± 0.043	0.603 ± 0.023	0.452 ± 0.013	0.456 ± 0.037	0.5761 ± 0.0011	0.512 ± 0.045

Sequence	protein stability index (Saccharomyces cerevisiae [1]; [3])	protein stability index (Saccharomyces cerevisiae [1]; [4])	protein stability index (Saccharomyces cerevisiae [1]; [5])	protein stability index (Saccharomyces cerevisiae [1]; [6])	protein stability index (Saccharomyces cerevisiae [1]; [7])	protein stability index (Saccharomyces cerevisiae [1]; [8])	protein stability index (Saccharomyces cerevisiae [1]; [9])	protein stability index (Saccharomyces cerevisiae [2])
VFRHFYTFLALC	0.338 ± 0.043	0.414 ± 0.013	0.472 ± 0.014	0.5932 ± 0.0029	0.111 ± 0.0013	0.0988 ± 0.017	0.132 ± 0.018	0.16 ± 0.0087
WVVVKITAHTAT	0.323 ± 0.028	0.38 ± 0.021	0.22 ± 0.02	0.405 ± 0.018	0.185 ± 0.0081	0.222 ± 0.021	0.4 ± 0.0065	0.326 ± 0.016
CFYSRTIILEHC	0.503 ± 0.1	0.506 ± 0.0072	0.464 ± 0.0086	0.5003 ± 0.0025	0.23 ± 0.015	0.233 ± 0.028	0.34 ± 0.015	0.328 ± 0.015
QLIDVGLLNCAA	0.499 ± 0.044	0.557 ± 0.033	0.435 ± 0.03	0.611 ± 0.052	0.412 ± 0.011	0.45 ± 0.027	0.5616 ± 0.0023	0.498 ± 0.079
VFCFCRFHFFCA	0.621 ± 0.066	0.649 ± 0.0077	0.496 ± 0.025	0.631 ± 0.026	0.432 ± 0.019	0.453 ± 0.02	0.563 ± 0.018	0.484 ± 0.026
LIPFPGFFILLT	0.244 ± 0.021	0.13 ± 0.0096	0.277 ± 0.021	0.37 ± 0.046	0.49 ± 0.023	0.28 ± 0.05	0.315 ± 0.054	0.436 ± 0.0094
LRLFIFLLFSVF	0.246 ± 0.025	0.282 ± 0.023	0.268 ± 0.034	0.39 ± 0.012	0.19 ± 0.0081	0.175 ± 0.015	0.249 ± 0.013	0.198 ± 0.013
LWRRSLLLLRCC	0.0526 ± 0.0063	0.0759 ± 0.04	0.173 ± 0.029	0.244 ± 0.015	0.0637 ± 0.013	0.0611 ± 0.0038	0.0618 ± 0.0063	0.0946 ± 0.013
KKKTKYSKDKLC	0.607 ± 0.03	0.696 ± 0.025	0.662 ± 0.036	0.723 ± 0.021	0.191 ± 0.028	0.217 ± 0.013	0.456 ± 0.04	0.343 ± 0.035
DRYSFYGYVVVL	0.587 ± 0.021	0.632 ± 0.05	0.512 ± 0.042	0.66198 ± 4.4e-05	0.1728 ± 0.0011	0.186 ± 0.02	0.291 ± 0.041	0.261 ± 0.0095
GLAVLSWLYIEL	0.557 ± 0.022	0.57162 ± 0.00039	0.457 ± 0.031	0.598 ± 0.013	0.445 ± 0.019	0.461 ± 0.014	0.57036 ± 0.0001	0.487 ± 0.013
APEWGGGDEWWG	0.75 ± 0.04	0.802 ± 0.015	0.691 ± 0.014	0.804 ± 0.019	0.697 ± 0.015	0.7 ± 0.0091	0.7984 ± 0.0027	0.767 ± 0.012
APRPSYSLLALL	0.733 ± 0.034	0.858 ± 0.13	0.711 ± 0.04	0.783 ± 0.026	0.375 ± 0.01	0.41 ± 0.0052	0.616 ± 0.043	0.443 ± 0.025
FLFFMGVGVVLY	0.285 ± 0.032	0.382 ± 0.029	0.314 ± 0.025	0.452 ± 0.023	0.35 ± 0.039	0.325 ± 0.025	0.425 ± 0.0071	0.295 ± 0.013
RVEPYDLARRVL	0.725 ± 0.038	0.768 ± 0.028	0.665 ± 0.027	0.759 ± 0.02	0.652 ± 0.025	0.628 ± 0.015	0.71 ± 0.018	0.726 ± 0.0081
VCLVFLFQFVLI	0.482 ± 0.094	0.507 ± 0.029	0.406 ± 0.023	0.517 ± 0.0061	0.442 ± 0.028	0.41 ± 0.0094	0.491 ± 0.01	0.481 ± 0.011
VGLLFGWVWSLW	0.644 ± 0.02	0.72401 ± 0.00029	0.56 ± 0.026	0.6999 ± 0.0055	0.5556 ± 0.0007	0.545 ± 0.0096	0.674 ± 0.015	0.485 ± 0.021
GYLVFTLRWLRG	0.384 ± 0.038	0.491 ± 0.035	0.343 ± 0.027	0.507 ± 0.016	0.271 ± 0.026	0.305 ± 0.02	0.461 ± 0.0085	0.461 ± 0.06
VIVIQGFVFVLG	0.2898 ± 0.0021	0.426 ± 0.033	0.267 ± 0.033	0.482 ± 0.0059	0.234 ± 0.0035	0.248 ± 0.035	0.421 ± 0.0092	0.279 ± 0.073
